Measurements published in patent publication US6649593B1, “Modulators of SREBP processing” (priority 1999, dated 2003).
Where two headings read alike, the source gives them in different places. Non-standard residues stand in square brackets, D forms with d. Residues, ends and D or L forms follow the SMILES beside them. *: point of attachment. Sta = CC(C)C[C@H](N)[C@@H](O)CC(=O)O; Isovaleryl = CC(C)CC(=O)*

Legend:
purified S1P(187-983) = target: T1, purified S1P(187-983) (Cricetulus griseus, UniProt Q9Z2A8); assay type: biochemical, hamster; details: for inhibition of S1P at extremely high concentrations: extremely high concentrations of inhibitor; for Relative Activity (comparative cleavage of fluorogenic synthetic peptidyl substrates): cleavage by purified S1P-C(187-983), MCA-peptide 100 μM, pH 8.0, 37° C.
T1 construct: 1.5-5 μg of purified S1P(187-983); made in house; host or cells: SRD-12B cells (CHO-derived) stably transfected with pCMV-S1P(983)-Myc-His (TR-3117, 'S1P(983) cells'); The protein was secreted into serum-free medium and purified on Ni-NTA agarose
T1 sequence (Q9Z2A8 187-983): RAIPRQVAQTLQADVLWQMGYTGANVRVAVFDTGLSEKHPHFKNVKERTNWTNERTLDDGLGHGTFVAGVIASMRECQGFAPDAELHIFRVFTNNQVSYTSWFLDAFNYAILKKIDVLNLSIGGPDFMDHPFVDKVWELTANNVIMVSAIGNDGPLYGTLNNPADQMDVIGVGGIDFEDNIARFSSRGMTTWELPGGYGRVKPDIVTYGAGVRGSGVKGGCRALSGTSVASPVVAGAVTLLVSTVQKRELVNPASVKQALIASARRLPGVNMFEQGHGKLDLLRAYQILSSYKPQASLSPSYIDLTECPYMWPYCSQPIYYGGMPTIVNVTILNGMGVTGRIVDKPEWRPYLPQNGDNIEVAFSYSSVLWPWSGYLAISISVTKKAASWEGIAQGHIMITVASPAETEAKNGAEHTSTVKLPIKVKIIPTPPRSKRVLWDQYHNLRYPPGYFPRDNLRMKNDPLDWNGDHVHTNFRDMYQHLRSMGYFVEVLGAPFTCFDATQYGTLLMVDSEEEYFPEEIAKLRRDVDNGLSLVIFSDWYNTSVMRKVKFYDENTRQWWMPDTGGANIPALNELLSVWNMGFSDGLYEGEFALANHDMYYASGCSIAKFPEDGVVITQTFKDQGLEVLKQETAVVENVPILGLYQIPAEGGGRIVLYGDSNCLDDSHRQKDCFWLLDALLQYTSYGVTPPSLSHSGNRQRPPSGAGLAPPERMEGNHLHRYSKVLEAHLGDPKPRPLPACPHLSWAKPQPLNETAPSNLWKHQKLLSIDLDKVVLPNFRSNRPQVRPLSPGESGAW
Description: Stock cultures of S1P(983) cells were grown in 850-cm^2 roller bottles in medium B supplemented with 5% (v/v) newborn calf lipoprotein-deficient serum and 500 μg/mL G418. On day 0, 10 roller bottles of S1P(983) cells were seeded at a density of ˜4×10^7 cells/roller bottles. On day 2, the medium was replaced with 100 mL of serum-free medium CHO-S-SFMII. The medium from each roller bottle was collected daily from day 3 to day 7. The collected medium was pooled, filtered through 0.45-μm cellulose acetate low-protein binding membrane filter units (Corning Costar) and stored at 4° C. for 0 to 4 days. On day 7, the filtered medium was adjusted to pH 8.0 by addition of tris-HCl at a final concentration of 25 mM, and then loaded onto four parallel 5-mL Ni-NTA agarose columns (Qiagen, Inc., Chatsworth, Calif.) equilibrated with 20 mL of buffer B (25 mM tris-HCl at pH 8.0, 10% (v/v) glycerol, 1 mM CaCl2). The chromatography was performed at 4° C. via gravity at ˜100 mL/hr. The column was washed with 40 mL of buffer B supplemented with 1M NaCl followed by 20 mL of buffer B without NaCl. […] The eluate was concentrated with a Centriprep 30 filter followed by a Centricon 30 filter (Amicon, Inc.).
S1P activity was measured fluorometrically with MCA-conjugated peptidyl substrates. Each reaction was carried out in 0.2 mL of assay buffer (25 mM tris, 25 mM Mes, 25 mM acetic acid, and 1 mM CaCl2 adjusted to pH 8.0 with concentrated NaOH). Reactions contained MCA-peptide (final concentration 100 μM, added in 2 μl DMSO) and 1.5-5 μg of purified S1P(187-983). After incubation for 0.5-5 h at 37° C., each reaction was terminated by addition of 1 mL of ice-cold 5 mM sodium EDTA. The liberated 7-amino-4-methylcoumarin (AMC) was measured with a Perkin-Elmer LS-30 luminescence spectrometer (360 nm excitation, 460 nm emission). A standard curve of fluorescence intensity was generated with different concentrations of AMC (Promega).

Ac-Arg-Ser-Leu-Lys-MCA = tested on: T2, Ac-Arg-Ser-Leu-Lys-MCA
T2 sequence: XSLX

Ac-Arg-Ser-Val-Leu-MCA = tested on: T3, Ac-Arg-Ser-Val-Leu-MCA
T3 sequence: XSVX

[1] = tested on: T4, Ac-Ser-Gly-Arg-Ser-Val-Leu-MCA
T4 sequence: XGRSVX

[2] = tested on: T5, Ac-Ser-Gly-Ser-Gly-Arg-Ser-Val-Leu-MCA
T5 sequence: XGSGRSVX

[3] = tested on: T6, Ac-Val-Phe-Ala-Ser-Leu-Lys-MCA
T6 sequence: XFASLX

[4] = tested on: T7, Ac-Val-Phe-Arg-Ser-Arg-Arg-MCA
T7 sequence: XFRSRX

[5] = tested on: T8, Ac-Val-Phe-Arg-Ser-Leu-Lys-MCA
T8 sequence: XFRSLX

Boc-Arg-Val-Arg-Arg-MCA = tested on: T9, Boc-Arg-Val-Arg-Arg-MCA
T9 sequence: XVRX

[6] = incubated with substrate Ac-VFRSLK-MCA

Compound	inhibition of S1P (purified S1P(187-983); [6])	Relative Activity (comparative cleavage of fluorogenic synthetic peptidyl substrates) (purified S1P(187-983))	other results
O[C@H](CS)[C@H](O)CS (racemic) [dithiothreitol]	–	–	inhibition of S1P at extremely high concentrations (purified S1P(187-983); [6]): also inhibited S1P
c1cnc2c(c1)ccc1cccnc12 [1,10-phenanthroline]	–	–	inhibition of S1P at extremely high concentrations (purified S1P(187-983); [6]): also inhibited S1P
N=C(N)c1ccc(CS(=O)(=O)F)cc1 [APMSF, (4-amindinophenyl)-methanesulfonyl fluoride]	not significantly inhibited	–	–
O=C(O)CN(CCN(CC(=O)O)CC(=O)O)CC(=O)O [EDTA]	–	–	inhibition of S1P (purified S1P(187-983)): partially inhibited
O=C(O)CN(CCOCCOCCN(CC(=O)O)CC(=O)O)CC(=O)O [EGTA]	–	–	inhibition of S1P at extremely high concentrations (purified S1P(187-983); [6]): also inhibited S1P
O=S(=O)(F)Cc1ccccc1 [PMSF, phenylmethylsulfonyl fluoride]	not significantly inhibited	–	–
Cl.NCCc1ccc(S(=O)(=O)F)cc1 [Pefabloc®]	–	–	inhibition of S1P at high concentrations (purified S1P(187-983); incubated with substrate Ac-VFRSLK-MCA, high concentrations of inhibitor): did inhibit S1P
CC(=O)N[C@@H](CC(C)C)C(=O)N[C@@H](CC(C)C)C(=O)N[C@H](C=O)CCCNC(=N)N [leupeptin]	resistant	–	–
CC(C)CC(=O)N[C@H](C(=O)N[C@H](C(=O)N[C@@H](CC(C)C)[C@@H](O)CC(=O)N[C@@H](C)C(=O)N[C@@H](CC(C)C)[C@@H](O)CC(=O)O)C(C)C)C(C)C [pepstatin] (Isovaleryl-VV[Sta]A[Sta]-OH)	resistant	–	–
Ac-Arg-Ser-Leu-Lys-MCA [Ac-RSLK-MCA, fluorogenic MCA-conjugated peptidyl substrate]	–	0.47	–
Ac-Arg-Ser-Val-Leu-MCA [Ac-RSVL-MCA, fluorogenic MCA-conjugated peptidyl substrate]	–	<0.1	–
Ac-Ser-Gly-Arg-Ser-Val-Leu-MCA [Ac-SGRSVL-MCA, fluorogenic MCA-conjugated peptidyl substrate]	–	<0.1	–
Ac-Ser-Gly-Ser-Gly-Arg-Ser-Val-Leu-MCA [Ac-SGSGRSVL-MCA, fluorogenic MCA-conjugated peptidyl substrate]	–	<0.1	–
Ac-Val-Phe-Ala-Ser-Leu-Lys-MCA [Ac-VFASLK-MCA, fluorogenic MCA-conjugated peptidyl substrate]	–	<0.1	–
Ac-Val-Phe-Arg-Ser-Arg-Arg-MCA [Ac-VFRSRR-MCA, fluorogenic MCA-conjugated peptidyl substrate]	–	<0.1	–
Ac-Val-Phe-Arg-Ser-Leu-Lys-MCA [Ac-VFRSLK-MCA, fluorogenic MCA-conjugated peptidyl substrate]	–	1.0	–
Boc-Arg-Val-Arg-Arg-MCA [Boc-RVRR-MCA, fluorogenic MCA-conjugated peptidyl substrate]	–	<0.1	–
N-acetyl-leucinal-leucinal-norleucinal [ALLN]	resistant	–	–
aprotinin	resistant	–	–
purified S1P(187-983), secreted form from S1P(983)-Myc-His cells (hamster Site-1 protease)	–	–	Relative Activity (cleavage of fluorogenic MCA substrate, release of AMC) (relative activity) (Ac-Arg-Ser-Leu-Lys-MCA): 0.47; Relative Activity (cleavage of fluorogenic MCA substrate, release of AMC) (relative activity) (Ac-Arg-Ser-Val-Leu-MCA): < 0.1; Relative Activity (cleavage of fluorogenic MCA substrate, release of AMC) (relative activity) [1]: < 0.1; Relative Activity (cleavage of fluorogenic MCA substrate, release of AMC) (relative activity) [2]: < 0.1; Relative Activity (cleavage of fluorogenic MCA substrate, release of AMC) (relative activity) [3]: < 0.1; Relative Activity (cleavage of fluorogenic MCA substrate, release of AMC) (relative activity) [4]: < 0.1; Relative Activity (cleavage of fluorogenic MCA substrate, release of AMC) (relative activity) [5]: 1; Relative Activity (cleavage of fluorogenic MCA substrate, release of AMC) (relative activity) (Boc-Arg-Val-Arg-Arg-MCA): < 0.1
